One molecule from CN113461818A (UNIV XUZHOU MEDICAL, dated 2021) can be followed below.

The target in the assay is T1, CD276抗原 (UniProt Q5ZPR3 29-466, limits assumed).
T1 construct: also called CD276靶抗原; CD276目的蛋白
T1 sequence (looked up): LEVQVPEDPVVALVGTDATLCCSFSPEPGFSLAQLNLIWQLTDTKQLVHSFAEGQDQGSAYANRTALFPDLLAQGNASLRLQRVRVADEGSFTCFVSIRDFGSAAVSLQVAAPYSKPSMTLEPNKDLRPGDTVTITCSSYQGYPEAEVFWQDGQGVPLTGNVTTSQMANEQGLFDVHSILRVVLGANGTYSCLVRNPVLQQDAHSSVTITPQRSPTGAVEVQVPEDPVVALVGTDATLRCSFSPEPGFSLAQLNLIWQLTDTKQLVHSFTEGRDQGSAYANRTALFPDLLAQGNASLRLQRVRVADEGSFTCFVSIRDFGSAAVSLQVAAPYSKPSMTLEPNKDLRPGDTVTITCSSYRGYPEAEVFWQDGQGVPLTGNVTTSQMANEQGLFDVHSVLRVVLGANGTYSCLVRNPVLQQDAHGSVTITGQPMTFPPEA
Kind of assay: phage ELISA on coated antigen, TMB, OD450nm. On the technique in general: An ELISA detects its analyte on a solid surface through an enzyme-linked reagent.

B1: CD276-03 monoclonal phage (clone 03 scFv displayed on phage) (scFv)
scFv: QVQLVQSGGGVVQPGRSLRLSCSASGFTFNSHGMHWVRQAPGKGLEWVGVIWYDGSNAYYADSAKGRFTISRDNSKNSVYLQLNSLGVEDTALYYCAKSDRPHPMGFYYYMDVWGQGTTVTVSSGGGGSGGGGSQSALTQPASVSGSPGQSITISCTGTSSDVGGYNYVSWYQQHPGKAPKLMIYDVSNRPSGVSNRFSGSKSGNTASLTISGLQAEDEADYYCSSYTSSSTLVFGGGTK
notes: The phage coat protein fusion partner is not described; also called 克隆03
Consider B1, for which the binding result was “no binding”.
